Reference: US20180002415A1 (Chugai, published 2018)

T1: recombinant cynomolgus monkey C5 (cynomolgus monkey, UniProt P01031 20-1676 (human entry), limits assumed)
T1 construct: also called cynoC5
T1 chain: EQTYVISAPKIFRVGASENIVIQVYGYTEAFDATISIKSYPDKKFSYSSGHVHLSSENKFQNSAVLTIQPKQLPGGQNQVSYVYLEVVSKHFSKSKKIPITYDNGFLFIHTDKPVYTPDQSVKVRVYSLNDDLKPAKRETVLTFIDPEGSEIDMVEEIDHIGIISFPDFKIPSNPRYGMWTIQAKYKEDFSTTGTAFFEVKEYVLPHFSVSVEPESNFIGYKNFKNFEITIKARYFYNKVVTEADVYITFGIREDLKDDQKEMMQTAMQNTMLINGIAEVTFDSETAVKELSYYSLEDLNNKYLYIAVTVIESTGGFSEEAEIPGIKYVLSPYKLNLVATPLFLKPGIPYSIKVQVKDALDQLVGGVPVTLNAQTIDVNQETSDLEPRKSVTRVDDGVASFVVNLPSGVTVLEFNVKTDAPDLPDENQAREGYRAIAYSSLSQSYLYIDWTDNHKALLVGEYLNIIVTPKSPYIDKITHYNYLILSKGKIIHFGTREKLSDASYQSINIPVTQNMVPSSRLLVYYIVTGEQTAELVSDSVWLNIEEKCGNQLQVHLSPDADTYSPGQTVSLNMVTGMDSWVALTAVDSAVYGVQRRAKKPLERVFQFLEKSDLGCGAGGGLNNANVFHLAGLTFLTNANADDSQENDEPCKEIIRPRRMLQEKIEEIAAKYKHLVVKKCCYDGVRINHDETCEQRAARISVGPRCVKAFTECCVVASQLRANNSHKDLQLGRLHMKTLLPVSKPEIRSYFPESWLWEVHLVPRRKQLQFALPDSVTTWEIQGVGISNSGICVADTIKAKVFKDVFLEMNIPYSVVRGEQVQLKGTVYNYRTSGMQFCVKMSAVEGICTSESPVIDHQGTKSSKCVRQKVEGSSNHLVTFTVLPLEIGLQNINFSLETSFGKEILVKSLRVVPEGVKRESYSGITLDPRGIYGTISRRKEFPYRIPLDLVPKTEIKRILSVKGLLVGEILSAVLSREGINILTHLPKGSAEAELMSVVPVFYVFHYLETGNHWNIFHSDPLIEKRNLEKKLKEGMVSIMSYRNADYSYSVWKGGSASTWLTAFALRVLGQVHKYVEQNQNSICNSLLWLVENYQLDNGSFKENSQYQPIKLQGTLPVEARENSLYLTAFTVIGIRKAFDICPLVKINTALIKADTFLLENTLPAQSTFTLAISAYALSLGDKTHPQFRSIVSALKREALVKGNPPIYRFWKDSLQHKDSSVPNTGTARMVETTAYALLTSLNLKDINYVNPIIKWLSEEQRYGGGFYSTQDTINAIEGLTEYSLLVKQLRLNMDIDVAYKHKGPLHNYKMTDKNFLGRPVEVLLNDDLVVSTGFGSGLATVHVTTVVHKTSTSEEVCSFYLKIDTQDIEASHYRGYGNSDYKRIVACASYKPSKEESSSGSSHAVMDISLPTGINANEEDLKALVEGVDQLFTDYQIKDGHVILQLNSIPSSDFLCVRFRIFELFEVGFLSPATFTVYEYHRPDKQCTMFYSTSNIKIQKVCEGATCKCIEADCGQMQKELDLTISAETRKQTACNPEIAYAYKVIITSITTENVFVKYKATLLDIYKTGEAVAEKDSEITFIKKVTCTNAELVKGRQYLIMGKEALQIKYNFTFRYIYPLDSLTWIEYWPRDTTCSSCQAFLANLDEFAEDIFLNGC

T2: 321-500
T2 construct: Expressed in E. coli
T2 GST fusion polypeptide: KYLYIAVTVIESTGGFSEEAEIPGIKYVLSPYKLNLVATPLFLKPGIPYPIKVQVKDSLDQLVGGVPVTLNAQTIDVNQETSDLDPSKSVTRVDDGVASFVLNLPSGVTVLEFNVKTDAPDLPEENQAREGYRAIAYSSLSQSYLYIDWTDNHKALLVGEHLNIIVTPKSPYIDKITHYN

T3: 481-660
T3 construct: Expressed in E. coli
T3 GST fusion polypeptide: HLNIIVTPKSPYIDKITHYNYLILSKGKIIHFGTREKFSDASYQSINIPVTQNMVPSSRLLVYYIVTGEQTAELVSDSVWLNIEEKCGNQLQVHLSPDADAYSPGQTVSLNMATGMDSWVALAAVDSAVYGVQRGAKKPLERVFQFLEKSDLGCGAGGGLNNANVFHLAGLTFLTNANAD

T4: 161-340
T4 construct: Expressed in E. coli
T4 GST fusion polypeptide: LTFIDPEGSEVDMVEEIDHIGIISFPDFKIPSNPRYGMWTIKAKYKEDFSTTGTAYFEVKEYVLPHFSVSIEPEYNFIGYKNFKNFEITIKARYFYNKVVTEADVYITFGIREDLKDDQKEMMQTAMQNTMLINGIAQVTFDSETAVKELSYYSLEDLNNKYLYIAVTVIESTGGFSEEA

B1: CFA0307 (antibody, V domains shown)
VH: QSLEESGGGLVKPGASLTLTCKASGIDFSNFYYICWVRQAPGKGLDLIACIYTVSGYTYYASWAKGRLTISKTSSTTVTLQMTSLTAADTATYFCARDLHAGITNLWGPGTLVTVSS
VL: AIEMTQTPFSVSAAVGGTVTIKCQASQNIYSNLAWYQQKPGQRPKLLIYGASNLESGVPSRFKGSGSGTEYTLTISDLECADAATYYCLQGYSYSNVDDAFGGGTEVVVK
notes: Chimeric, rabbit V regions; also called CFA0307-F760G4
B2: eculizumab-F760G4 (antibody, human IgG4 S228P, kappa)
heavy: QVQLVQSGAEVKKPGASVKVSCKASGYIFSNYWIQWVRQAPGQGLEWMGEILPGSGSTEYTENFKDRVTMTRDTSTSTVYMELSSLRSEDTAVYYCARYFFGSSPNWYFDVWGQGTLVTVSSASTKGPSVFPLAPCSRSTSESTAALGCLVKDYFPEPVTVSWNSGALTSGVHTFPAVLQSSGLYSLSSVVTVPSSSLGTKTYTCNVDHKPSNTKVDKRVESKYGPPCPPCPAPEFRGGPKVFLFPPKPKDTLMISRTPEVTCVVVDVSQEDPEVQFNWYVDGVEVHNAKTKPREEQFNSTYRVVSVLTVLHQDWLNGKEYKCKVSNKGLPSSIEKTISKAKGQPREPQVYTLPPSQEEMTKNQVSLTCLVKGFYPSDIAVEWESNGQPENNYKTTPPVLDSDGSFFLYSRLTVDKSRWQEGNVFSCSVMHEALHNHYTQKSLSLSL
light: DIQMTQSPSSLSASVGDRVTITCGASENIYGALNWYQQKPGKAPKLLIYGATNLADGVPSRFSGSGSGTDFTLTISSLQPEDFATYYCQNVLNTPLTFGQGTKVEIKRTVAAPSVFIFPPSDEQLKSGTASVVCLLNNFYPREAKVQWKVDNALQSGNSQESVTEQDSKDSTYSLSSTLTLSKADYEKHKVYACEVTHQGLSSPVTKSFNRGEC
notes: EcuH VH fused to modified human IgG4 CH F760G4; EcuL VL fused to k0 light chain constant region
B3: 305LO20-SG422 (antibody, human IgG4)
heavy: QVQLVESGGGLVQPGGSLRLSCAASGFTVHSSYYMAWVRQAPGKGLEWVGAIFTGSGAEYKAEWAKGRVTISKDTSKNQVVLTMTNMDPVDTATYYCASDAGYDYPTHAMHYWGQGTLVTVSSASTKGPSVFPLAPCSRSTSGGTAALGCLVKDYFPEPVTVSWNSGALTSGVHTFPAVLQSSGLYSLSSVVTVPSSSLGTKTYTCNVDHKPSNTKVDKRVESKYGPPCPPCPAPEFRRGPKVFLFPPKPKDTLMISRTPEVTCVVVDVSHEDPEVKFNWYVDGVEVHNAKTKPREEQYNSTYRVVSVLTVLHQDWLNGKEYKCKVSNKGLPSSIEKTISKAKGQPREPQVYTLPPSREEMTKNQVSLTCLVKGFYPSDIAVEWESNGQPENNYKTTPPVLDSDGSFFLYSKLTVDKSRWQQGNVFSCSVLHEALHAHYTRKELSLSP
light: DIQMTQSPSSLSASVGDRVTITCRASQGISSSLAWYQQKPGQAPRLLIYGASETESGVPSRFSGSGSGTDFTLTISSLQPEDFATYYCQNTKVGSSYGNTFGGGTKVEIKRTVAAPSVFIFPPSDEQLKSGTASVVCLLNNFYPREAKVQWKVDNALQSGNSQESVTEQDSKDSTYSLSSTLTLSKADYEKHKVYACEVTHQGLSSPVTKSFNRGEC
notes: Modified human IgG4 CH SG422, human CL SK1
B4: 305LO23-SG115 (antibody, human IgG1, V domains shown)
VH: QVQLVESGGGLVQPGGSLRLSCAASGFTVHSSYYMAWVRQAPGKGLEWVSGIFTGSGATYKAEWAKGRVTISKDTSKNQVVLTMTNMDPVDTATYYCASDAGYDYPTHAMHYWGQGTLVTVSS
VL: DIQMTQSPSSLSASVGDRVTITCRASQGISSSLAWYQQKPGQAPRLLIYGASTTQSGVPSRFSGSGSGTDFTLTISSLQPEDFATYYCQNTKVGSSYGNTFGGGTKVEIKR
notes: Modified human IgG1 CH SG115, human CL SK1
B5: CFA0675 (antibody, V domains shown)
VH: QSVEESGGRLVTPGTPLTLTCTVSGFSLSTYAMGWVRQAPGKGLEWIGTIDTGDNSFYANWAKGRFTISRTSTTVDLKITSPTAEDTATYFCARNDGSVYNLFNLWGPGTLVTVSS
VL: DVVMTQTPASVSAAVGGTVTIKCQASENIYSALSWYQQKPGLRPRLLIYYASTLASGVPSRFKGSRSGTEFTLTISDLECADAASYYCQQYYDINSVDNTFGGGTKVVVE
notes: Chimeric, rabbit V regions; also called CFA0675-F760G4

What was measured:
[1] = molecular target: T1, recombinant cynomolgus monkey C5; assay: SPR (Biacore), 37C, pH 7.4, Ab captured on ProA/G
Description: To observe the cross-reactivity of anti-C5 antibodies against human C5 (hC5) and cynomolgus monkey C5 (cynoC5), BIACORE® kinetics analysis was performed.

[2] = molecular target: T5, C5 peptide 52-124 fused to GST-tag (human, UniProt P01031 52-124); assay: summary drawing of the binding reactions to C5 beta-chain fragments
T5 construct: not shown: GST-tag (glutathione S-transferase); vector and linker not restated
T5 sequence (P01031 52-124): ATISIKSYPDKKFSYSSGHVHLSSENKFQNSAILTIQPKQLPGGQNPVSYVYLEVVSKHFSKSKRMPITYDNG

[3] = molecular target: T6, C5 peptide 45-124 fused to GST-tag (human, UniProt P01031 45-124); assay: as above
T6 construct: not shown: GST-tag (glutathione S-transferase); vector and linker not restated
T6 sequence (P01031 45-124): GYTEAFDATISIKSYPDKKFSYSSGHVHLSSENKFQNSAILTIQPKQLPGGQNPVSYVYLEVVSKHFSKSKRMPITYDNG

[4] = molecular target: T7, C5 peptide 33-108 fused to GST-tag (human, UniProt P01031 33-108); assay: as above
T7 construct: not shown: GST-tag (glutathione S-transferase); vector and linker not restated
T7 sequence (P01031 33-108): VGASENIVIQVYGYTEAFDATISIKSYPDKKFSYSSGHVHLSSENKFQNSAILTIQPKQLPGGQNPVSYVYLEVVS

[5] = molecular target: T8, C5 peptide 45-111 fused to GST-tag (human, UniProt P01031 45-111); assay: as above
T8 construct: not shown: GST-tag (glutathione S-transferase); vector and linker not restated
T8 sequence (P01031 45-111): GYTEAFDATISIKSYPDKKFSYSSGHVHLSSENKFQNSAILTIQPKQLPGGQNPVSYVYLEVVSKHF

321-500 [6] = molecular target: T2, 321-500; assay: as above
481-660 = molecular target: T3, 481-660; assay: as above
[7] = molecular target: T9, C5 peptide 33-111 fused to GST-tag (human, UniProt P01031 33-111); assay: as above
T9 construct: not shown: GST-tag (glutathione S-transferase); vector and linker not restated
T9 sequence (P01031 33-111): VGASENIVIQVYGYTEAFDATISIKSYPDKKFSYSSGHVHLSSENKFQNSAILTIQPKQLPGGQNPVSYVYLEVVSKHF

161-340 = molecular target: T4, 161-340; assay: Western blot of E. coli lysates expressing GST-fused C5 beta-chain fragments
Description: (§1) Anti-C5 monoclonal antibodies (MAbs) were tested for binding to C5 β-chain-derived peptides in Western blot analysis. […] The E. coli samples were harvested after incubation with 1 mM Isopropyl β-D-1-thiogalactopyranoside (IPTG) for 5 hours at 37° C., and centrifuged at 20000×g for 1 min to obtain pellets.

[8] = molecular target: recombinant MG1-MG2 domain of human C5 β-chain (human, UniProt P01031 20-225); assay: SPR (BIACORE T200, 37 C, pH7.4): antibody captured by ProA/G, MG1-MG2 domain injected (20 and 40 nM per paragraph 378; concentration of the curves not printed on the sheet)
Description: ProA/G (Pierce) was immobilized onto a CM4 sensorchip using amine coupling kit (GE Healthcare) according to the recommended settings by GE Healthcare. Antibodies and analytes were diluted into the respective running buffers, ACES pH7.4 and pH5.8 (20 mM ACES, 150 mM NaCl, 1.2 mM CaCl₂, 0.05% Tween 20, 0.005% NaN₃). […] The surface was regenerated using 25 mM NaOH. Kinetic parameters at both pH conditions were determined by fitting the sensorgrams with 1:1 binding model using BIACORE® T200 Evaluation software, version 2.0 (GE Healthcare).
The MG1-MG2 domain was injected at concentrations of 20 nM and 40 nM.

recombinant human C5 [9] = molecular target: T10, recombinant human C5 (human, UniProt P01031 20-1676); assay: SPR (Biacore), 37C, association and dissociation at pH 5.8, Ab on ProA/G
T10 construct: Also used for the C5 of normal human serum in the functional rows; also called hC5; rhC5
Description: (§2) The kinetic parameters of anti-C5 antibodies against recombinant human C5 were assessed at 37° C. using BIACORE® T200 instrument (GE Healthcare) at three different conditions; (1) both association and dissociation were at pH7.4, (2) both association and dissociation were at pH5.8, and (3) association was at pH7.4 but dissociation was at pH5.8. ProA/G (Pierce) was immobilized onto a CM1 sensorchip using amine coupling kit (GE Healthcare) according to the recommended settings by GE Healthcare. Antibodies and analytes for condition (1) and (3) were diluted in ACES pH7.4 buffer (20 mM ACES, 150 mM NaCl, 1.2 mM CaCl₂, 0.05% Tween 20, 0.005% NaN₃) and for condition (2) they were diluted in ACES pH5.8 buffer (20 mM ACES, 150 mM NaCl, 1.2 mM CaCl₂, 0.05% Tween 20, 0.005% NaN₃). […] The surface was regenerated using 25 mM NaOH. Kinetic parameters at condition (1) and (2) were determined by fitting the sensorgrams with a 1:1 binding model and the dissociation rate at condition (3) was determined by fitting the sensorgrams with a 1:1 dissociation for MCK model using BIACORE® T200 Evaluation software, version 2.0 (GE Healthcare). pH dependency of all antibodies were shown as ratio of dissociation rate of condition (2) and (1).

recombinant human C5 [10] = molecular target: T10, recombinant human C5; assay: SPR (Biacore), 37C, association at pH 7.4, dissociation at pH 5.8
Description: as §2

recombinant human C5 [11] = molecular target: T10, recombinant human C5; assay: SPR (Biacore), ratio of dissociation rates of conditions (2) and (1)
Description: as §2

recombinant human C5 [12] = molecular target: T10, recombinant human C5; assay: SPR (Biacore), 37C, association and dissociation at pH 7.4, Ab on ProA/G
Description: as §2

321-500 [13] = molecular target: T2, 321-500; assay: Western blot of E. coli lysates expressing GST-fused C5 beta-chain fragments
Description: as §1

Binder | Kd [1] [nM] | binding result [2] | binding result [3] | binding result [4] | binding result [5] | binding result (321-500 [6]) | binding result (481-660) | binding result [7] | binding result (161-340) | binding result [8] | koff (recombinant human C5 [9]) [s⁻¹] | kon (recombinant human C5 [9]) [M⁻¹ s⁻¹] | koff (recombinant human C5 [10]) [s⁻¹] | pH dependency (kd pH 5.8 / kd pH 7.4) (recombinant human C5 [11]) [fold] | koff (recombinant human C5 [12]) [s⁻¹] | kon (recombinant human C5 [12]) [M⁻¹ s⁻¹] | binding result (321-500 [13])
B1 | 7.68 | no binding | no binding | no binding | no binding | no binding | no binding | no binding | no binding |  |  |  |  |  |  |  | 
B2 |  |  |  |  |  |  |  |  |  | no binding (tested: 40 nM (not printed on the sheet)) |  |  |  |  |  |  | 
B3 |  |  |  |  |  |  |  |  |  |  | 0.00815 | 136000 | 0.0155 | 17.3 | 0.00047 | 1.35e+06 | 
B4 |  |  |  |  |  |  |  |  |  |  | 0.00855 | 133000 | 0.0173 | 20.2 | 0.000423 | 1.53e+06 | 
B5 | 1.29 | no binding | no binding | no binding | no binding |  | no binding | no binding | no binding |  |  |  |  |  |  |  | no binding
